Results reported in the DeepSol protein solubility set.

Assay: soluble on expression in E. coli; label from the status in PepcDB or PDB records

Sequence | soluble on expression in E. coli
MTEASEINLSDIKGPIDVNTPITNHRTALIQNYSTKPKLTYQTVFGVNGPLVIVHNVKFPMFNEIVKITLPNGQIRMGQVLESSKNKAVVQVFEGTTGVDAKFTTCEFTGDIFRSPVSLDMLGRIFNGSGKPIDKGPPVLPEDYLDINGQPINPFNRIYPEEMIQTGISAIDVMNSIARGQKIPIFSAAGLPHNEIAAQIVRQGGLVQLPGRNNETVNFAIVFAAMGVNMETARFFKQDFEECGSMDNVCLFLNLANDPTIERIITPRIALTAAEFFAYHCGKHVLVVLTDMSSYAEALREISAAREEVPGRRGFPGYMYTDLATIYERAGRVKGREGSITQIPILTMPNNDITHPIPDLTGYITEGQIYIDKQLHKRLIYPPIDVLPSLSRLMKSAVGEGMTREDHSDLSNQLYACYAMGKDVQAMKAVVGVEALSPDDLLYLEFLAKFEKNFIAQGRYENRTIVESLNIGWELLRIFPREMLKRIPETLLEKYYKRKKQ | not soluble
MTEHTSSYYAASANKYAPFDTLNESITCDVCVVGGGYTGLSSALHLAEAGFDVVVLEASRIGFGASGRNGGQLVNSYSRDIDVIEKSYGMDTARMLGSMMFEGGEIIRERIKRYQIDCDYRPGGLFVAMNDKQLATLEEQKENWVRYGNKQLELLDVNAIRREVASDRYTGALLDHSGGHIHPLNLAIGEADAIRLNGGRVYELSAVTQIQHTTPAVVRTANGQVTAKYVIVAGNAYLGDKVEPELAKRSMPCGTQVITTERLSEDLARSLIPKNYCVEDCNYLLDYYRLTADNRLLYGGGVVYGARNPDDVERLVVPKLLKTFPQLKGVKIDYRWTGNFLLTLSHMPQFGRLDTNIYYMQGYSGHGVTCTHLAGRLIAELLRGDAERFDAFANLPHYPFPGGRTLRVPFTAMGAAYYSLRDRLGV | not soluble
MTEIQKPYDLKGRSLLKESDFTKAEFEGLIDFAITLKEYKKNGIKHHYLSGKNIALLFEKNSTRTRAAFTVASIDLGAHPEFLGKNDIQLGKKESVEDTAKVLGRMFDGIEFRGFSQQAVEDLAKFSGVPVWNGLTDDWHPTQMLADFMTIKENFGYLEGINLTYVGDGRNNIAHSLMVAGAMLGVNVRICTPKSLNPKEAYVDIAKEKASQYGGSVMITDNIAEAVENTDAIYTDVWVSMGEESEFEQRINLLKDYQVNQQMFDLTGKDSTIFLHCLPAFHDTNTLYGQEIYEKYGLAEMEVTDQIFRSEHSKVFDQAENRMHTIKAVMAATLGS | not soluble
MTEKGRAIEEESFRIVDQEAGPHGFSPLEWPVVRRMIHATADFEYKALTRFSQGAVEAGLKAIQAGARILVDARMIACGLNPERLRLFGNEVVELLAHPEVVARAKATGGTRAEAAVAYAWEKGLLDGAIVGVGNAPTFLLALVEAIRQGARPALVLGMPVGFVNVLEAKRALMEAPVPWIVTEGRKGGSTLVVAALHALIRLAADGGVDTSRAYREG | soluble
MTEKLAVFTGKLAEAGVLNETQPLSMRLHLENIQAESDPESIVPLFSHGVILNILVEQLEESIPLSHLKKGTKVRFTVVGLPPMTMSIPPHVGGQAIELIEEI | not soluble
MTELAQLQASTEQAAALLKAMSHPKRLLILCMLSGSPGTSAGELTRITGLSASATSQHLARMRDEGLINSQRDAQRILYSIKNEAVNAIIATLKNVYCP | not soluble
MTEMSFLSSEVLVGDLMSPFDQSGLGAEESLGLLDDYLEVAKHFKPHGFSSDKAKAGSSEWLAVDGLVSPSNNSKEDAFSGTDWMLEKMDLKEFDLDALLGIDDLETMPDDLLTTLDDTCDLFAPLVQETNKQPPQTVNPIGHLPESLTKPDQVAPFTFLQPLPLSPGVLSSTPDHSFSLELGSEVDITEGDRKPDYTAYVAMIPQCIKEEDTPSDNDSGICMSPESYLGSPQHSPSTRGSPNRSLPSPGVLCGSARPKPYDPPGEKMVAAKVKGEKLDKKLKKMEQNKTAATRYRQKKRAEQEALTGECKELEKKNEALKERADSLAKEIQYLKDLIEEVRKARGKKRVP | soluble
MTENNKLQTIEQQLVQEKNVSDNVLNKVRVLESQGNLELPNDYSPSNAMKQAWLQISQDNKLMSCNDTSKANALLDMVTQGLNPAKNQCYFIPYGNKMQLQRSYHGNVMMLKRDAGAQDVVAQVIYKGDTFKQEMGETGRIKAIKHEQDFFNIDKENIIGAYCTIVFNDGRDNYIEVMTIEQIKQAWMQSSMIKDEKALQNSKTHNNFKEEMAKKTVINRAAKRYINTSTDSNLFKYAQESEQRQRKEVLDAEVEENANQEQLDFEQPVLEEAQYTELENDKPIDVSDFEEIKEPATEKESEEEPF | not soluble
MTENNRLSVKLPGLDLKNPIIPASGCFGFGEEYAKYYDLNKLGSIMVKATTLHPRFGNPTPRVAETASGMLNAIGLQNPGLEVIMTEKLPWLNENFPELPIIANVAGSEEADYVAVCAKIGDAANVKAIELNISCPNVKHGGQAFGTDPEVAAALVKACKAVSKVPLYVKLSPNVTDIVPIAKAVEAAGADGLTMINTLMGVRFDLKTRQPILANITGGLSGPAIKPVALKLIHQVAQDVDIPIIGMGGVANAQDVLEMYMAGASAVAVGTANFADPFVCPKIIDKLPELMDQYRIESLESLIQEVKEGKK | soluble
MTEPIFMVGARGCGMTTVGRELARALGYEFVDTDIFMQHTSGMTVADVVAAEGWPGFRRRESEALQAVATPNRVVATGGGMVLLEQNRQFMRAHGTVVYLFAPAEELALRLQASLQAHQRPTLTGRPIAEEMEAVLREREALYQDVAHYVVDATQPPAAIVCELMQTMRLPAA | soluble
MTERFDCHHCNESLFGKKYILREESPYCVVCFETLFANTCEECGKPIGCDCKDLSYKDRHWHEACFHCSQCRNSLVDKPFAAKEDQLLCTDCYSNEYSSKCQECKKTIMPGTRKMEYKGSSWHETCFICHRCQQPIGTKSFIPKDNQNFCVPCYEKQHAMQCVQCKKPITTGGVTYREQPWHKECFVCTACRKQLSGQRFTARDDFAYCLNCFCDLYAKKCAGCTNPISGLGGTKYISFEERQWHNDCFNCKKCSLSLVGRGFLTERDDILCPDCGKDI | soluble
MTESITRDSMQYDVVIVGAGPSGLSAAIKLKQLAEQNGREISVCVVEKGSEVGAHSLAGAVIDPIALNELISDWKEKGAPLTRTVTQDKVLFLTEKKAFNLPITPNFDNHGNYIVSLGEVVRWLAEQAENMGVEIYPGFAAAEVLYHEDGSVKGIATGNMGIGKDGEPTDSFQPGMELWAQQTLFAEGCRGSLSKQIIERFQLDQNSQPQTYGLGIKEVWEVPSEQHQPGLVVHSAGWPLDSKTYGGAFVYHFDDNKVAVGFVVGLDYQNPYLSPFEEFQRFKTHPEIRKTFEGGRRIAYGARSLIEGGLQSLPKLSFKGGILVGDAAGFLNMPRIKGIHTAMKSAMLAAEAVFPLLENLEEVEGFDSGKEAADYQQRFEQSWLYQELYAARNVRPSFKWGVYLGSIYTGIDQMIFRGKAPWTLKHHGKDNEQLKKAAACKPIDYPKPDGVLTFDRLSSVFLANLAHEENQPDHLVLNNPQTMIDVNYKEYASPETRYCPAGVYEIVEENGNPRLQINAANCVHCKTCDIKDPTQNITWICPEGASGPNYGGM | not soluble
MTESLNRDLPVLLATLNKLSSDADRILLENREDIRKIAYNLSIVMEKVKDDLPVLVENLKELSVNLNTVVKNNKVNINKTLVSLRKTTENLSRASYKLDKILADLESGKGTLGKLLKDEELYENVNQGVKALGKAGKVVEKTQLYIGLRGELYREGDSKGILSVRLVPDRDKYYLLEVVGDSRGRVYREEYLDGREVVKKEFKPEFTLQYARNFSLFGRTLTLRGGLKENTGGVGADYYIYRDKYLFADLWDFGRKDRPQDKDLKPNLQIGIHWYINRNLYVRFGGDDLLNSKLRGFFGGVGLEFVDEDLKYLLGGIGVPIR | not soluble
MTEVEKSRSGRIVKRKVFADFQQLDDDLKSITTEELRESASESKKLRLGPTRRSCRNIPTNYEELKAKTDAGIIPETVYYRASNNSMYIPSITADMLKNDGNDLTVQTRSDKYFKYNRVRQSTKIDYAEPEKVYDIIYAVRKRPILWDQRLICHRNSNLSRRAWDQLDLELGIDEEYPLARRKQIWKSKRDYFVSAVNAANLRKWIYADALEFYRPMINFRTTFCLRPTVAQPSQSVHDKLVLADKNIQCTPGDKKNVLTFLLKSLYDTGMSSPEMMAEHGLEILKIFKKNAESSNLKLN | not soluble
MTFFFVFLALLSLLAFVIRKAHRNTYEAVLHKVQVGRSEDGDGAIRILQLSDLHLEKLSITPDDLYEKLKEEEIDLIALTGDFLDREESIAKLGPYLAALNALKPTYGMYAVFGNHDYVLQGEPFARLKATLEAHGCVVLQNETKTITVNGQTVNIIGIDDFYTGRSDIEKAYAGVKDGISLVLTHDPDIVPHMKDYHFDYLLSGHFHGGQIHWPKPYHLAKMSKTLTERNMIKGYHEWEGKPFYINEGLGQTGVNIRIGSKPEVTLHLLALPSRREAVKAV | not soluble
MTFQETISAYIQERYQITPDFPFKKHPDYLVFRHPRNAKWFALIMPLDAQLLGATENKQLTILTVKLAPELIALLKNQPGYFPAYHMNKEHWLSLSEEIPLSQVFSFIDESYQRSY | not soluble
MTGCSHRFYYSHMIQTSVRSFEVGEDLASMAVDERISLLRSRMQSISKSGDFSLDYNCKTADKNIIPLSDPLSHVLPWGGLPRG | not soluble
MTGKKRSASSSRWLQEHFSDKYVQQAQKKGLRSRAWFKLDEIQQSDKLFKPGMTVVDLGAAPGGWSQYVVTQIGGKGRIIACDLLPMDPIVGVDFLQGDFRDELVMKALLERVGDSKVQVVMSDMAPNMSGTPAVDIPRAMYLVELALEMCRDVLAPGGSFVVKVFQGEGFDEYLREIRSLFTKVKVRKPDSSRARSREVYIVATGRKP | soluble
MTGLDKIISQILEDAGKEAQEISEKAKSEAEAVLAEAKAGCKKIAAENDEKLAGEATSYMERIKSSAELKKRQAVLLAKQQVITEMLEQAYEALLKKEGEEYFALIGKMLDKYVLPKTGEIYFSEKDLDRMPQGFEAVIEKAAVSKGGSLTLVKEPKNIDGGFILVYGGIEENCSFRALLAARRDELSDKVHAMLFS | not soluble
MTGMTNVTKLASEPSGQEFLVFTLGDEEYGIDILKVQEIRGYDQVTRIANTPAFIKGVTNLRGVIVPIVDLRIKFSQVDVDYNDNTVVIVLNLGQRVVGIVVDGVSDVLSLTAEQIRPAPEFAVTLSTEYLTGLGALGDRMLILVNIEKLLNSEEMALLDSAASEVA | soluble
MTGNLVTKNSLTPDVRNGIDFKIADLSLADFGRKELRIAEHEMPGLMSLRREYAEVQPLKGARISGSLHMTVQTAVLIETLTALGAEVRWASCNIFSTQDHAAAAVVVGPHGTPDEPKGVPVFAWKGETLEEYWWAAEQMLTWPDPDKPANMILDDGGDATMLVLRGMQYEKAGVVPPAEEDDPAEWKVFLNLLRTRFETDKDKWTKIAESVKGVTEETTTGVLRLYQFAAAGDLAFPAINVNDSVTKSKFDNKYGTRHSLIDGINRGTDALIGGKKVLICGYGDVGKGCAEAMKGQGARVSVTEIDPINALQAMMEGFDVVTVEEAIGDADIVVTATGNKDIIMLEHIKAMKDHAILGNIGHFDNEIDMAGLERSGATRVNVKPQVDLWTFGDTGRSIIVLSEGRLLNLGNATGHPSFVMSNSFANQTIAQIELWTKNDEYDNEVYRLPKHLDEKVARIHVEALGGHLTKLTKEQAEYLGVDVEGPYKPDHYRY | soluble
MTGRTGGNGSTQAQPERVMLVGVMLDKDGTGSSAARLNGFQTALAEAVELVKAAGGDSVRVETAKRDRPHTALFVGTGKAAELSEAVAADGIDLVVFNHELTPTQERNLEKELKCRVLDRVGLILAIFARRARTQEGRLQVELAQLSHLAGRLIRGYGHLQSQRGGIGMKGPGETKLETDRRLIAHRINALKKQLANLKKQRALRRKSRESGTIKTFALVGYTNVGKSSLFNRLTKSGIYAKDQLFATLDTTARRLYISPECSIILTDTVGFVSDLPHKLISAFSATLEETAQADVLLHVVDAAAPNSGQQIEDVENVLQEIHAGDIPCIKVYNKTDLLPSEEQNTGIWRDAAGKIAAVRISVAENTGIDALREAIAESCAAAPNTDETEMPLEHHHHHH | soluble
